Source: patent US7422883 (INTER K, dated 2008)
Values belong to the binder of their own block, whether it stands above or below them. No end group written: not given here. *: point of attachment. Biotin = O=C1N[C@H]2[C@H](CS[C@H]2CCCCC(=O)*)N1

Assays:
[1] = target: T1, GST.ERK2 (non-phosphorylated ERK2 coupled to glutathione-S-transferase) (Mus musculus (Mouse), UniProt P63085 1-358); assay: ELISA over a range of peptide concentrations (FIG. 20)
T1 construct: not shown: glutathione-S-transferase encoded by pGEX vector; N-terminal position assu
T1 sequence (P63085 whole entry): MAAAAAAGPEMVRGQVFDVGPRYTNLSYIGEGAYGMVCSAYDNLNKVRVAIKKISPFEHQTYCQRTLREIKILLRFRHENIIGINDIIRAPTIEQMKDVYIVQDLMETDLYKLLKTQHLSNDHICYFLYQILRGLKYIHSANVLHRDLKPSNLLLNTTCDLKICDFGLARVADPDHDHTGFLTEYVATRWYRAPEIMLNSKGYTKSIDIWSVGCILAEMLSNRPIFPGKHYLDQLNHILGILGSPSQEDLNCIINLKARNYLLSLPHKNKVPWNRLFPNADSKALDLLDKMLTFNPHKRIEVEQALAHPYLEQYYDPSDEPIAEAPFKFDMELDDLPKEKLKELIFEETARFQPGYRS

[2] = target: T2, ERK2 cleaved from GST-ERK2 by thrombin (Mus musculus (Mouse), UniProt P63085 1-358, limits assumed); assay: ELISA with thrombin-cleaved ERK2 (FIG. 23)
T2 construct: also called ERK2 (thrombin cleaved)
T2 sequence (P63085 whole entry): as above

[3] = target: T3, ERK2 (soluble ERK2 used in the ELISAs of Examples 10 to 12) (Mus musculus (Mouse), UniProt P63085 1-358, limits assumed); assay: ELISA, corrected for non-specific binding (FIG. 34)
T3 sequence (P63085 whole entry): as above

[4] = target: T3, ERK2 (soluble ERK2 used in the ELISAs …); assay: ELISA of ERK2 on synthetic peptide
[5] = target: T1, GST.ERK2 (non-phosphorylated ERK2 …); assay: ELISA, biotinylated peptide on streptavidin plate, detection with SC1647
Description: Peptide fragments corresponding to regions of the cytoplasmic tail domain of the β6 subunit were screened in an enzyme-linked immunosorbent assay (ELISA) for binding with ERK2. The 52 amino acid long β6 cytoplasmic tail is shown in FIG. 16 as are the amino acid sequences for the cytoplasmic domains of the β1 to β3 subunits. In particular, four synthetic peptides designated fragment 1 to fragment 4 were prepared and biotinylated at the N-terminal end of each, respectively (Auspep Pty Ltd, Melbourne Australia).
Overlapping biotinylated fragments 1 to 4 were coated onto streptavidin coated polystyrene plates (Pierce, Rockford Ill. USA, Cat No. 15125) and the ELISA performed substantially according to manufacturers instructions. […]
Binding of ERK to the peptides is detected using 100 µl anti-ERK1/2 mAb SC1647 (Santa Cruz) as the primary antibody at a dilution of 1:700 (isotype matched antibody IgG2b is used as a control). […] A […] of detection reagent (alkaline phosphatase detection kit-Biorad) is then introduced into each well after a final washing step and allowed to react for 15-30 minutes at room temperature in the dark before absorbance is measured at 405 nm. […]

Binder: RSKAKWQTGT (also: biotinylated, position not given here) [10 mer test peptide RSKAKWQTGT]
binding result [1]: binds

Binder: RSKAKWQTGTNPLYR (also: biotinylated, position not given here, also called 15-mer β6 peptide) [15 mer test peptide (seq. 4) RSKAKWQTGTNPLYR]
binding result [2]: binds
binding result [3]: binds
binding result [1]: binds

Binder: KFEKEKMNAKWDTGENPIYK (also called β1 peptide) [β1 cytoplasmic domain peptide KFEKEKMNAKWDTGENPIYK]
binding result [4]: no binding (tested: ERK2 (1 µm) by the legend of FIG. 35C)

Second part, the binder after the results:

binding result [3]: binds
Binder: RARAKWDTANNPLYK (also called β3 peptide) [β3 cytoplasmic domain peptide RARAKWDTANNPLYK]

binding result [2]: binds
Binder: RSKAKNPLYR (4 with WQTGT omitted) [10 mer peptide 10(4) RSKAKNPLYR]

binding result [5]: binds
Binder: Biotin-RSKAKWQTGTNPLYRGSTST (also called peptide fragment 2) [Fragment 2 of the β6 cytoplasmic tail]

binding result [3]: binds
Binder: RSRARYEMASNPLYR (also called β5 peptide; β5 fragment) [β5 cytoplasmic domain peptide RSRARYEMASNPLYR]
